Assays:
[1] = molecular target: cytochrome c-dependent nitric oxide reductase (cNOR) from Paracoccus denitrificans, NorB and NorC, unlabelled (Paracoccus denitrificans) (UniProt Q51662)
[2] = molecular target: cytochrome c-dependent nitric oxide reductase (cNOR) from Paracoccus denitrificans, NorB and NorC, unlabelled (Paracoccus denitrificans) (UniProt Q51662); remark: listed apart in the source
[3] = molecular target: cytochrome c-dependent nitric oxide reductase (cNOR) from Paracoccus denitrificans, NorB and NorC, unlabelled (Paracoccus denitrificans) (UniProt Q51662); remark: listed apart in the source
[4] = molecular target: cytochrome c-dependent nitric oxide reductase (cNOR) from Paracoccus denitrificans, NorB and NorC, unlabelled (Paracoccus denitrificans) (UniProt Q51662); remark: listed apart in the source

Sequence of cytochrome c-dependent nitric oxide reductase (cNOR) from Paracoccus denitrificans, NorB and NorC, unlabelled (Paracoccus denitrificans) (Q51662 whole entry, looked up): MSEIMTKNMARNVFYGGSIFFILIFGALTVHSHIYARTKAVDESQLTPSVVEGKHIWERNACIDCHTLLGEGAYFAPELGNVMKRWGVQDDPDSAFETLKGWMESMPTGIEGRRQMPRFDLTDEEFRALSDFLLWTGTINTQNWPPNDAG
Sequence of horse heart cytochrome c (P00004 whole entry): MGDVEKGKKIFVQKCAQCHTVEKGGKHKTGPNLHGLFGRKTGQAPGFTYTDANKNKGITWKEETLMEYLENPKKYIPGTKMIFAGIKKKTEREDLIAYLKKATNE
Sequence of cytochrome cd1 nitrite reductase (cd1NiR) from Paracoccus pantotrophus, labelled with Abberior STAR 635 (P72181 30-596): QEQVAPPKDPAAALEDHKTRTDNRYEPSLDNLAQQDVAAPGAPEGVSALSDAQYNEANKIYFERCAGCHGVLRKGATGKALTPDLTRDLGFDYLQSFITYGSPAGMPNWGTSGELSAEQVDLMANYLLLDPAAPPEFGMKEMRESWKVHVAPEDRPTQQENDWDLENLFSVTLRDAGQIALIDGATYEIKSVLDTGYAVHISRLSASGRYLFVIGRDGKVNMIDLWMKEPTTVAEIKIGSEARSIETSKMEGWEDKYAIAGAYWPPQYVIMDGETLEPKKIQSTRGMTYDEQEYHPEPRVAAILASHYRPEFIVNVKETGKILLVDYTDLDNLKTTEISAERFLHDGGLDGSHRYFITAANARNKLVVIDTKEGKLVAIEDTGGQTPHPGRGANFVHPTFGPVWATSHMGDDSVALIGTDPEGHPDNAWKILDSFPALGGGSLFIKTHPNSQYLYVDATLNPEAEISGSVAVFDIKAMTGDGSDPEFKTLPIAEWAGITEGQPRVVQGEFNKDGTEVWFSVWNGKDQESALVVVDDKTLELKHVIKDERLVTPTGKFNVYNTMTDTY

Row | Km for cyt. c of NO reduction by cNOR in detergent (0.05% DDM) [1] | Km for cyt. c of NO reduction by liposome-reconstituted cNOR [1] | Km for cyt. c of NO reduction by liposome-reconstituted cNOR in the presence of ~30 nM cd1NiR (unchanged against the control) [2] | Km for cyt. c of NO reduction by liposome-reconstituted cNOR, side-by-side control without cd1NiR [2] | inhibition of the maximum NO-reduction activity (kmax at ~5 µM NO) of 40 nM detergent-solubilized cNOR, cd1NiR 0-200 nM; the inhibition is released at higher cd1NiR [3] | relative kmax (kcat of the fit) of NO reduction by liposome-reconstituted cNOR in the presence of ~30 nM cd1NiR, cyt. c titration; control without cd1NiR = 100% [4] | Substance
1 | 0.8 µM | 0.8 µM | 0.15 µM | 0.2 µM |  |  | horse heart cytochrome c (from UniProt P00004 1-105) (natural protein)
2 |  |  |  |  | 50% | 46% | cytochrome cd1 nitrite reductase (cd1NiR) from Paracoccus pantotrophus, labelled with Abberior STAR 635 (from UniProt P72181 30-596) (enzyme)
